Source: patent US20260028391A1 (HUMABS BIOMED, published 2026)

Experiments:
[1] = biological target: fusion glycoprotein (F) of RSV A GFP (Tables 41 and 42) (respiratory syncytial virus A); test: cell-based or functional assay
[2] = biological target: fusion glycoprotein (F) of RSV B GFP (Tables 41 and 42) (respiratory syncytial virus B); test: cell-based or functional assay
[3] = biological target: fusion glycoprotein (F) of MPV A GFP (Tables 41 and 43) (metapneumovirus A); test: cell-based or functional assay
[4] = biological target: biot-RSV-F wt (respiratory syncytial virus (RSV)); test: BLI (Octet), biotinylated F on SA sensors, mAb 5 µg/ml
[5] = biological target: T1, RSV-A F (RSV A); test: BLI
T1 construct: also called RSV F A

[6] = biological target: T2, RSV-B F (RSV B); test: BLI
T2 construct: also called RSV F B

[7] = biological target: RSV A fusion glycoprotein (F), virus of the neutralisation assays of Tables 54 and 57 (RSV A); test: cell-based or functional assay
[8] = biological target: T3, RSV F A, A2 Ref (RSV A, strain A2, UniProt P03420 26-574); test: FACS, % binding to RSV F A variants
T3 construct: whole, on cells

[9] = biological target: T4, RSV F A S443P-K445N (RSV A, strain A2, UniProt P03420 26-574); test: FACS, % binding to RSV F A variants
T4 construct: whole, on cells

[10] = biological target: T5, RSV F A G446E (RSV A, strain A2, UniProt P03420 26-574); test: FACS, % binding to RSV F A variants
T5 construct: whole, on cells

[11] = biological target: T6, RSV F A L203I (RSV A, strain A2, UniProt P03420 26-574); test: FACS, % binding to RSV F A variants
T6 construct: whole, on cells

[12] = biological target: T7, RSV F B, B Ref (RSV B); test: FACS, % binding to RSV F B variants
T7 construct: whole, on cells

[13] = biological target: T8, RSV F B K68N-N201S (RSV B); test: FACS, % binding to RSV F B variants
T8 construct: whole, on cells

[14] = biological target: T9, RSV F B K68N-N208S (RSV B); test: FACS, % binding to RSV F B variants
T9 construct: whole, on cells

[15] = biological target: T10, RSV F B N201S (RSV B); test: FACS, % binding to RSV F B variants
T10 construct: whole, on cells

[16] = biological target: T11, RSV F B N208D (RSV B); test: FACS, % binding to RSV F B variants
T11 construct: whole, on cells

[17] = biological target: T12, RSV F B N208S (RSV B); test: FACS, % binding to RSV F B variants
T12 construct: whole, on cells; also called mutant N208S

[18] = biological target: T13, RSV F B S443P (RSV B); test: FACS, % binding to RSV F B variants
T13 construct: whole, on cells; also called mutant S443P

[19] = biological target: fusion glycoprotein (F) of MPV A1/6621 (metapneumovirus A1/6621); test: cell-based or functional assay
[20] = biological target: DS-Cav1 RSV F (respiratory syncytial virus (RSV); …, UniProt P13843 26-513); test: ELISA on RSV-F Ds-Cav1, 1 ug/ml
[21] = biological target: T14, DS-Cav1 RSV F (respiratory syncytial virus); test: ELISA on DS-Cav1 RSV F
T14 construct: also called DC-VCav1

[22] = biological target: fusion glycoprotein (F) of the RSV used in the GFP-based neutralization assay of Table 23 (respiratory syncytial virus); test: cell-based or functional assay
[23] = biological target: fusion glycoprotein (F) of the MPV (non-D280N) used in the GFP-based neutralization assay of Table 23 (metapneumovirus); test: cell-based or functional assay
[24] = biological target: T15, MPV fusion glycoprotein without the D280N mutation (MPV-F D280) (metapneumovirus); test: biolayer interferometry (BLI), rIgG1 with M428L/N434S
T15 construct: also called MPV F Non-D280N; MPV-F wt

[25] = biological target: T16, MPV fusion glycoprotein with the D280N mutation (MPV-F N280) (metapneumovirus); test: as above
T16 construct: also called MPV F D280N; MPV-F D280N

[26] = biological target: RSV fusion glycoprotein (RSV-F) (respiratory syncytial virus); test: as above
[27] = biological target: fusion glycoprotein of the RSV used in the neutralization assay of Example 1 (respiratory syncytial virus (strain not …)); test: cell-based or functional assay
[28] = biological target: fusion glycoprotein of the MPV D280 used in the neutralization assay of Example 3 (metapneumovirus (strain )); test: cell-based or functional assay

Row | Binder | Kd [5] | Kd [6] | IC50, neutralization of RSVA [7] | % binding [8] | % binding [9] | % binding [10] | % binding [11] | % binding [12] | % binding [13] | % binding [14] | % binding [15] | % binding [16] | % binding [17] | % binding [18] | further results
1 | RSD5-FR-GL-rIgG1 (antibody, V domains shown, Germline-reverted version of RSD5 (framework regions), recombinant IgG1; also called RSD5-FR-GL-rlgG1) VH: QVQLVESGGGVVQPGRSLRLSCAASGFAFNNFAMHWVRQAPGKGLEWVAVVSYDGTSPYYADSVKGRFTISRDNSKNTLYLQMNSLRAEDTAVYYCARGLGSGSYSWIGYFYAMDVWGQGTTVTVSS VL: QSALTQPASVSGSPGQSITISCTGTSSDVGGYVYVSWYQQHPGKAPKLMIYDVSNRPSGVSNRFSGSKSGNTASLTISGLQAEDEADYYCISYTDRNTVVFGGGTKLTVL | – | – | – | – | – | – | – | – | – | – | – | – | – | – | IC50 (ng/ml), RSV A GFP neutralization [1]: 1.27 ng/mL; IC50 (ng/ml), RSV B GFP neutralization [2]: 1.14 ng/mL; IC50 (ng/ml), MPV A GFP neutralization [3]: > 2000 ng/mL; Kd [4]: 1.46 nM
2 | MPK176-v1.3 (antibody, V domains shown) VH: QVQLVQSGAEVKKPGASVRVSCKASGYTLTAYGISWVRQAPGQGLEWMGWISPKHGNTHYAQRFQGRVTMTTDTSTSTAYMELRSLRPDDTAVYFCAREGVDIMAVPWYFDYWGQGTLVAVSS VL: SYVLTQPPSVSVAPGQTARISCGGNNIGSKSVHWYQQKPGQAPVVVVYDDSKRPSGIPERFSGSNSGNTATLTISGVEAGDEADYFCQVWDSATDHWVFGGGTKLTVL | 0.136 nM | 0.0256 nM | 0.00394 µg/mL | 78.1% | 0.036% | 0.017% | 56.1% | 39.9% | 60% | 57.9% | 60.2% | 53.6% | 60.4% | 33.8% | –
3 | MPH12-v1 (VH C111/C112.2 variant of Tables 18 and 19) (antibody, V domains shown) VH: QVQLVESGGGLVKPGGSLRLSCVASGFTFSGFYMKWIRQAPGKGLEWVSSISASGSYTNYADSVEGRFTVSRDNAKNSLFLLMSSLRAEDTAVYYCARGDSYSGASASHGEFFHKWGQGTLVTVSS VL: QSVLTQPPSVSGAPGQRVTISCTGSDSNIGADFDVHWYQQLPGTAPKLLIYGNINRPSGVPDRFSGSRSGTSAFLAITRLQAEDEADYYCQSYDRSLHYVFGAGTKVTVL | – | – | – | – | – | – | – | – | – | – | – | – | – | – | MPV IC50 (nM), neutralization of MPV A1/6621 [19]: 5.87 nM; EC50 (read off the curve) [20]: ~0.1 µg/mL
4 | MPH12-v16 (VH-FRGL-S63A/VL-D25S) (antibody, V domains shown, also called MPH12 VH-FRGL-S63A / MPH12 VL-D25S) VH: QVQLVESGGGLVKPGGSLRLSCAASGFTFSGFYMKWIRQAPGKGLEWVSSISASGSYTNYADAVEGRFTISRDNAKNSLYLQMNSLRAEDTAVYYCARGDSYCGASACHGEFFHKWGQGTLVTVSS VL: QSVLTQPPSVSGAPGQRVTISCTGSSSNIGADFDVHWYQQLPGTAPKLLIYGNINRPSGVPDRFSGSRSGTSAFLAITRLQAEDEADYYCQSYDRSLHYVFGAGTKVTVL | – | – | – | – | – | – | – | – | – | – | – | – | – | – | EC50 [21]: 0.0156 µg/mL; RSV IC 50 (ng/mL), GFP-based in vitro neutralization [22]: 50.3 ng/mL; MPV IC50 (ng/mL), GFP-based in vitro neutralization [23]: 26.8 ng/mL; Kd [24]: 0.038 nM; Kd [25]: 0.54 nM; Kd [26]: 0.41 nM
5 | MPH12-v28 (VH-FRGL-S63A/VL-S26A) (antibody, V domains shown, also called MPH12 VH-FRGL-S63A / MPH12 VL-S26A) VH: QVQLVESGGGLVKPGGSLRLSCAASGFTFSGFYMKWIRQAPGKGLEWVSSISASGSYTNYADAVEGRFTISRDNAKNSLYLQMNSLRAEDTAVYYCARGDSYCGASACHGEFFHKWGQGTLVTVSS VL: QSVLTQPPSVSGAPGQRVTISCTGSDANIGADFDVHWYQQLPGTAPKLLIYGNINRPSGVPDRFSGSRSGTSAFLAITRLQAEDEADYYCQSYDRSLHYVFGAGTKVTVL | – | – | – | – | – | – | – | – | – | – | – | – | – | – | EC50 [21]: 0.0322 µg/mL; RSV IC 50 (ng/mL), GFP-based in vitro neutralization [22]: 59.4 ng/mL; MPV IC50 (ng/mL), GFP-based in vitro neutralization [23]: 26.3 ng/mL; Kd [24]: 0.045 nM; Kd [25]: 0.74 nM; Kd [26]: 0.38 nM
6 | MPH12-v2 (VH C111/C112.2 variant of Tables 18 and 19) (antibody, V domains shown) VH: QVQLVESGGGLVKPGGSLRLSCVASGFTFSGFYMKWIRQAPGKGLEWVSSISASGSYTNYADSVEGRFTVSRDNAKNSLFLLMSSLRAEDTAVYYCARGDSYAGASAAHGEFFHKWGQGTLVTVSS VL: QSVLTQPPSVSGAPGQRVTISCTGSDSNIGADFDVHWYQQLPGTAPKLLIYGNINRPSGVPDRFSGSRSGTSAFLAITRLQAEDEADYYCQSYDRSLHYVFGAGTKVTVL | – | – | – | – | – | – | – | – | – | – | – | – | – | – | MPV IC50 (nM), neutralization of MPV A1/6621 [19]: 0.552 nM; EC50 (read off the curve) [20]: ~0.1 µg/mL
7 | MPK133 (antibody, V domains shown) VH: QVQLVQSGGGLVKPGGSLRLSCAASEFSFSGYFMIWIRQAPGKGLEWISYISGSSTYTNYADSVKGRFTISRDNAQNTLYLEMNSLRAEDTGVYYCATEQVPSPGPFDLWGQGTLVTVSS VL: QSVLTQPPSVSGAPGQRVTISCTGSSSNIGAGYDVHWYQQFPGRSPTLLIYRNTNRPSGVPDRFSGSQSGSSASLAITGLQAEDEADYYCQSYDRTLSGWAFGGGTKVTVL | – | – | – | – | – | – | – | – | – | – | – | – | – | – | RSV Neutralization - IC50 [27]: 0.0211 µg/mL; MPV D280 Neutralization - IC50 [28]: 0.0035 µg/mL
8 | MPK65-v2-v1.2 (antibody, V domains shown) VH: QVPLVQSGAEVKKPGESLKISCKGSGYSFINYWIGWVRQMPGKGLEWMGVIYPFDSDTKYSPSFQGHVTISADKSSNTAYVQWSSLKASDTAMYYCARFTFGIAVVTDDVSGEGQAFEIWGQGTMVTVSS VL: QIVMMQSPATLSVSPGERATLSCRASQSVAGNLAWYQQRPGQAPRLLIYGASTRATGVPARFSGSGSETEFTLTISSLQSEDFAVYYCHQYSNLPQAFGQGTRLDIK | 0.205 nM | 0.581 nM | 0.00438 µg/mL | 56% | 33.5% | 25.4% | 18% | 56.4% | 30.8% | 0.047% | 35.9% | 0.47% | 0.041% | 33.8% | –
9 | MPK201-v1.2 (antibody, V domains shown) VH: EVQLVQSGAEVKKPGESLKISCQGSGYSFINYWIGWVRQKPGKGLEWMGIIYPFDSETKYSPSFQGHVTFSADKSINTAYVQWSSLRASDTAMYYCARFTFGLAVTTADVSGEGQAFEIWGQGTMVTVSS VL: QIVMMQSPATLSVSPGERATLSCRASQSVAGNLAWYQQRPGQAPRLLVYGASTRASGVPARFSGSGSETEFTLTISSLQSEDFAVYYCHHYSDLPQAFGQGTRLDIK | 0.211 nM | 0.161 nM | 0.00288 µg/mL | 66.9% | 36% | 29% | 40% | 61.3% | 47.3% | 12.1% | 47.7% | 0.015% | 14.4% | 45.8% | –
10 | MPK201-v4.1 (antibody, V domains shown) VH: QVQLVQSGAEVKKPGESLKISCQGSGYSFISYWIGWVRQKPGKGLEWMGIIYPFDSETKYSPSFQGHVTFSADKSINTAYVQWSSLRASDTAMYYCARFTFGLAVTTADVSGEGQAFEIWGQGTMVTVSS VL: EIVMMQSPATLSVSPGERATLSCRASQSVAGNLAWYQQRPGQAPRLLVYGASTRASGVPARFSGSGSETEFTLTISSLQSEDFAVYYCHHYSDWPQAFGQGTRLDIK | 0.292 nM | 0.552 nM | 0.00435 µg/mL | 54.1% | 2700% | 18% | 13.1% | 51.9% | 30% | 0.048% | 33% | 0.018% | 0.016% | 31.5% | –
